Reference: the supplement of paper PMC7125110
± gives the standard error. Variants at the floor of the assay were thinned out.

B1: glmS ribozyme (parent)
chain: AUAAAAGCGCCAGAACUACAGAAAUGUAGUUGACGAGGAGGAGGUUUAUCGAAUUUUCGGCGGAUGCCUCCAAA

Columns and labels:
Conditions in all cases: with glucosamine-6-phosphate
glucosamine-6-phosphate [1] = variants of: B1; assay: self-cleavage kobs at 160 uM GlcN6P; higher = faster cleavage; RNA array
Outline: (§1)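 Weighted Michaelis–Menten fits across concentrations supplied kcat and KM, based on kobs from one- or two-exponential decay fits to normalised per-tile medians. The data came from barcoded ribozyme variants transcribed in situ by E. coli RNA polymerase on sequenced MiSeq chips and tracked at 37 °C by a hybridised Cy3 probe. Glucosamine-6-phosphate (40 μM to 10 mM) in HEPES/KCl/Mg(OAc)2 buffer was flowed in.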

glucosamine-6-phosphate [2] = variants of: B1; assay: self-cleavage kobs at 2500 uM GlcN6P; higher = faster cleavage; RNA array
Outline: as §1

glucosamine-6-phosphate [3] = variants of: B1; assay: self-cleavage kobs at 640 uM GlcN6P; higher = faster cleavage; RNA array
Outline: as §1

glucosamine-6-phosphate [4] = variants of: B1; assay: self-cleavage kobs at 10000 uM GlcN6P; higher = faster cleavage; RNA array
Outline: as §1

Row | Variant | self-cleavage kobs at 160 uM GlcN6P (glucosamine-6-phosphate [1]) [s⁻¹] | self-cleavage kobs at 2500 uM GlcN6P (glucosamine-6-phosphate [2]) [s⁻¹] | self-cleavage kobs at 640 uM GlcN6P (glucosamine-6-phosphate [3]) [s⁻¹] | self-cleavage kobs at 10000 uM GlcN6P (glucosamine-6-phosphate [4]) [s⁻¹]
1 | A48U G60U C68U | < 1e-05 | < 1e-05 | – | –
2 | A33U A53U U69G | 3.89e-05 ± 1.8e-05 | 5.61e-05 ± 2.6e-05 | 0.000215 ± 7.6e-05 | –
3 | A6U U30G G62U | < 1e-05 | – | < 1e-05 | –
4 | U30C C58U C67G C71A | 0.000188 ± 5.3e-05 | 0.000197 ± 4.3e-05 | 0.000584 ± 0.00013 | –
5 | A14U G29A A52C C61U C68A C71G | 0.000123 ± 3.3e-05 | 0.00014 ± 5e-05 | 9.79e-05 ± 2.9e-05 | –
6 | G13U A33U U57C | < 1e-05 | – | < 1e-05 | –
7 | A6C G37C U65A | < 1e-05 | < 1e-05 | < 1e-05 | –
8 | G9U A12G U54G | < 1e-05 | – | – | –
9 | A33U G37U G43A | < 1e-05 | – | – | –
10 | G7C C58A | < 1e-05 | < 1e-05 | < 1e-05 | < 1e-05
11 | A14U A39C A52C | < 1e-05 | – | < 1e-05 | –
12 | U54G C68A | 6.58e-05 ± 2.7e-05 | 0.000107 ± 2.7e-05 | 6.59e-05 ± 2.9e-05 | –
13 | G13U G44U C68U | < 1e-05 | < 1e-05 | < 1e-05 | –
14 | C8A G40C G41C G63U | < 1e-05 | – | < 1e-05 | –
15 | G40C G43U G66U | < 1e-05 | < 1e-05 | < 1e-05 | –
16 | G40U G44U C58G | < 1e-05 | – | – | –
17 | C16U A36U U55C U56C C58G | < 1e-05 | < 1e-05 | – | –
18 | C16U G51C | < 1e-05 | < 1e-05 | < 1e-05 | –
19 | C10G G66C | < 1e-05 | – | < 1e-05 | < 1e-05
20 | C16G U30A C58U G59A G60U C67G | < 1e-05 | – | – | –
21 | G40A U47C | 0.000162 ± 4.2e-05 | – | – | 0.00144 ± 0.00069
22 | G44U C71G | < 1e-05 | – | < 1e-05 | < 1e-05
23 | A12G A15G G29A G32C G37U | < 1e-05 | – | – | –
24 | C10G G32A A33G C61A G63A | 0.00144 ± 0.00069 | – | – | –
25 | A12G U56C G60A | < 1e-05 | < 1e-05 | < 1e-05 | –
26 | C50G C67G | 7.32e-05 ± 1.3e-05 | – | 5e-05 ± 7.7e-06 | –
27 | A33G A52G U56A | < 1e-05 | – | – | < 1e-05

Row | Variant | self-cleavage kobs at 160 uM GlcN6P (glucosamine-6-phosphate [1]) [s⁻¹] | self-cleavage kobs at 2500 uM GlcN6P (glucosamine-6-phosphate [2]) [s⁻¹] | self-cleavage kobs at 640 uM GlcN6P (glucosamine-6-phosphate [3]) [s⁻¹] | self-cleavage kobs at 10000 uM GlcN6P (glucosamine-6-phosphate [4]) [s⁻¹]
28 | A39C G59U C61A | < 1e-05 | – | – | –
29 | G13C U45G U56A G63A U65C | < 1e-05 | < 1e-05 | < 1e-05 | –
30 | C11G A39C A64U | < 1e-05 | – | < 1e-05 | –
31 | A42G U46G C67U | 0.000274 ± 8.3e-05 | 0.00148 ± 0.00058 | – | –
32 | C50A C67U U69C | 5.97e-05 ± 1.8e-05 | 0.000119 ± 3.2e-05 | – | –
33 | G40A G51U | < 1e-05 | – | < 1e-05 | –
34 | A6G C50U U54C | < 1e-05 | < 1e-05 | < 1e-05 | –
35 | G66U C68U C70U | 7.05e-05 ± 2.3e-05 | 0.000104 ± 2.7e-05 | – | –
36 | A12U G60U C70G | < 1e-05 | – | – | –
37 | G7U A15U G51U C61U C67G | < 1e-05 | – | < 1e-05 | –
38 | A12C G35U G41U | < 1e-05 | – | < 1e-05 | –
39 | U30G G35U G44U U46G U65C | < 1e-05 | < 1e-05 | < 1e-05 | –
40 | A12C A15G C50G U56G C67G | 0.000121 ± 2.8e-05 | 0.000133 ± 3.1e-05 | 0.000141 ± 3.7e-05 | 4.37e-05 ± 1.2e-05
41 | G7A G40A | < 1e-05 | – | < 1e-05 | –
42 | A12U C61A U69G | < 1e-05 | – | – | –
43 | C11U A14G A39G G60C | < 1e-05 | – | < 1e-05 | –
44 | C10G C11G G37C A53G | < 1e-05 | < 1e-05 | – | –
45 | G37A G43U U47C A52C A64U | < 1e-05 | < 1e-05 | < 1e-05 | –
46 | A36C G38A G44C C67U C68G | < 1e-05 | < 1e-05 | < 1e-05 | –
47 | A15G A33G | < 1e-05 | – | < 1e-05 | < 1e-05
48 | C10U A33C G43U G44A C67G | < 1e-05 | < 1e-05 | < 1e-05 | –
49 | U45G C61U G63A U65C | < 1e-05 | < 1e-05 | < 1e-05 | –
50 | C10G G35C | < 1e-05 | – | < 1e-05 | < 1e-05
51 | G32C C71U | < 1e-05 | 2.98e-05 ± 1.2e-05 | – | 9.6e-05 ± 1e-05
52 | G38C U49G | < 1e-05 | < 1e-05 | < 1e-05 | –
53 | C34G U49G A53G G63C | < 1e-05 | – | < 1e-05 | –
